Laboratory results published in patent US7309594.

Test system: Protein Kinase Bα/AKT1 catalytic domain (SEQ ID NO:3, tag removed) before PDK1 treatment
Sequence (chain, as listed by the source): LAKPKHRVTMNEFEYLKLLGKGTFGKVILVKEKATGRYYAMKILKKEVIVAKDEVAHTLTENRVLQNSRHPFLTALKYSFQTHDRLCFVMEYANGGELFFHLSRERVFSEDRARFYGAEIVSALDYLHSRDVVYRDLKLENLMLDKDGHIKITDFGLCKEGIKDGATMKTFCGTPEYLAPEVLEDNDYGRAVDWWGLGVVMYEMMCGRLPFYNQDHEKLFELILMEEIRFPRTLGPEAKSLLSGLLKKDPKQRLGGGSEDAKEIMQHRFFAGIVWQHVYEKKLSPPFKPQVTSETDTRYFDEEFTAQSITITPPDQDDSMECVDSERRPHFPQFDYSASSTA

Substance: PDK1 kinase
- phosphorylation of AKT1 (mass spectrometry): Following 120 minute incubation with PDK1, AKT1 was converted into a mixture of mono and double phosphorylated proteins
